From patent US10233219 (TUFTS MEDICAL CENTER, dated 2019)
Non-standard residues stand in square brackets, D forms with d. No end group written: not given here. *: point of attachment. PEG8 = NCCOCCOCCOCCOCCOCCOCCOCCOCCC(=O)O; Palmitoyl = CCCCCCCCCCCCCCCC(=O)*; Tic = O=C(O)[C@@H]1Cc2ccccc2CN1

Legend:
Experiment in all cases: cell-based or functional assay
[1] = target: T1, mouse CMKLR1 (chemerin receptor) (mouse, UniProt P97468 1-371)
T1 sequence (looked up): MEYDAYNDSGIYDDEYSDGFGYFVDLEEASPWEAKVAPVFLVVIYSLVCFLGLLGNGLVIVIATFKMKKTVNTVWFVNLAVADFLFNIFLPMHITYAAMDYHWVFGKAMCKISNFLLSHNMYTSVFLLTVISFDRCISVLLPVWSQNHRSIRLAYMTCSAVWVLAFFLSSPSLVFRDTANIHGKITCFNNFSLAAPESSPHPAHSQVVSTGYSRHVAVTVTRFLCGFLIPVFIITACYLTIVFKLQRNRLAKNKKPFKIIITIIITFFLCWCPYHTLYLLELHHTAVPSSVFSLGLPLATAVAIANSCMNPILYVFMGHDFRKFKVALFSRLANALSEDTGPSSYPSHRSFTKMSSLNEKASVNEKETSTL

[2] = target: T2, human CMKLR1 (chemerin receptor) (human, UniProt Q99788 1-373)
T2 sequence (looked up): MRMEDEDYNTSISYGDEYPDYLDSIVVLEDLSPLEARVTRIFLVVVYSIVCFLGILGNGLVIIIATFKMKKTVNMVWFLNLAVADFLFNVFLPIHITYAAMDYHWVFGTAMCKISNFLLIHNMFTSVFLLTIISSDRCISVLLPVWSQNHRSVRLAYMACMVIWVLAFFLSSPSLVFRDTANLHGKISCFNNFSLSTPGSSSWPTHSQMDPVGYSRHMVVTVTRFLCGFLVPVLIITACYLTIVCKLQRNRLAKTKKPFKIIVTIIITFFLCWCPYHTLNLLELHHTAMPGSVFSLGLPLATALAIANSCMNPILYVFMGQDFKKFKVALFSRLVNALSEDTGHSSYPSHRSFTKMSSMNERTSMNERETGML

neurokinin 1 receptor = neurokinin 1 receptor (human, UniProt P25103 1-407)
Sequence of neurokinin 1 receptor (P25103 whole entry): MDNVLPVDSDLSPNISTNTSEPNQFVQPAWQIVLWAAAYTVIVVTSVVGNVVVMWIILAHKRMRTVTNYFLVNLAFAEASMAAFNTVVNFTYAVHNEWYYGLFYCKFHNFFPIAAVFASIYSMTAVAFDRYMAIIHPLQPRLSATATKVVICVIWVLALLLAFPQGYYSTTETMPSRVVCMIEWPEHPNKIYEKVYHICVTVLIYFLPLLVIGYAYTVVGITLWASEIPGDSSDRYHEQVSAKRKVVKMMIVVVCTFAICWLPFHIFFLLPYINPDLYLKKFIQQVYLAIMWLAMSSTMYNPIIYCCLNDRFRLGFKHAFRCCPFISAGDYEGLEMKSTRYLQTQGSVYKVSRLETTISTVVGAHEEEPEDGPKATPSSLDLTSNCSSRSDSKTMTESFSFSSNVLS

| Binder | EC50 [1] | EC50 (nM), + wash [1] | pEC50 [1] | pEC50, + wash [1] | EC50 [2] | EC50 (nM), + wash [2] | pEC50 [2] | pEC50, + wash [2] | EC50 (neurokinin 1 receptor) |
| --- | --- | --- | --- | --- | --- | --- | --- | --- | --- |
| {Palmitoyl-PEG8}-GG[dY]FLPSQF[dA][Tic]S (also: D-Ser, which S not given here) [l-Stable Chem (lipidated stable chemerin peptide)] | 2 nM | 10.4 nM | 8.7 | 7.96 | 2.6 nM | 27.1 nM | 8.59 | 7.6 |  |
| s-Chem 21-157 (soluble recombinant human chemerin corresponding to amino acids 21-157) (ligand) ELTEAQRRGLQVALEEFHKHPPVQWAFQETSVESAVDTPFPAGIFVRLEFKLQQTSCRKRDWKKPECKVRPNGRKRKCLACIKLGSEDKVLGRLVHCPIETQVLREAEEHQETQCLRVQRAGEDPHSFYFPGQFAFS | 13.7 nM |  | 8.01 |  |  |  |  |  |  |
| H-[dY]FLPSQF[dA][Tic]S (also: D-Ser, which S not given here) [s-Stable Chem (soluble stable chemerin peptide)] | 11.9 nM |  | 7.92 |  | 60.6 nM |  | 7.21 |  |  |
| {Palmitoyl-PEG8}-KGGRPKPQQFFGLM-OH (SMILES CCCCCCCCCCCCCCCC(=O)NCCOCCOCCOCCOCCOCCOCCOCCOCCC(=O)N[C@@H](CCCCN)C(=O)NCC(=O)NCC(=O)N[C@@H](CCCNC(=N)N)C(=O)N1CCC[C@H]1C(=O)N[C@@H](CCCCN)C(=O)N1CCC[C@H]1C(=O)N[C@@H](CCC(N)=O)C(=O)N[C@@H](CCC(N)=O)C(=O)N[C@@H](Cc1ccccc1)C(=O)N[C@@H](Cc1ccccc1)C(=O)NCC(=O)N[C@@H](CC(C)C)C(=O)N[C@@H](CCSC)C(=O)O) [l-SubP-COOH (lipidated Substance P with a C-terminal free acid)] |  |  |  |  |  |  |  |  | 6.1 nM |
